Measured values published in article PMC7784771.

Legend:
TDP-43 RRM1-RRM2 = TDP-43 RRM1-RRM2 (human, UniProt Q13148 101-265); assay: fluorescence polarization
TDP-43 RRM1 = TDP-43 RRM1 (human, UniProt Q13148 101-191); assay: fluorescence polarization
TDP-43 RRM1, sequence (Q13148 101-191): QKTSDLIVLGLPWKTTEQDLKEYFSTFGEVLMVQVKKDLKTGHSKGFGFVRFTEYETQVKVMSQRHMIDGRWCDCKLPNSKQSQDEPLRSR

TDP-43 RRM1-RRM2, sequence (Q13148 101-265): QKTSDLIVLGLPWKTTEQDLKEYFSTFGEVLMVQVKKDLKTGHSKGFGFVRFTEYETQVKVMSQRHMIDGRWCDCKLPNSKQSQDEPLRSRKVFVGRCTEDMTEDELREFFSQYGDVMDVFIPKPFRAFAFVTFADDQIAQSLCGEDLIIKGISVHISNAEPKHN

Binder: UGUGUGUGUGUG (ssRNA) [(UG)6 RNA]
- Kd (TDP-43 RRM1-RRM2): 9.5 ± 1.3 nM
- Kd (TDP-43 RRM1): 56.9 ± 2.1 nM
